# Ends that are not written are not given here.
# T1: collagen type III (Homo sapiens, UniProt P02461)
# T1 construct: purchased Millipore
# T1 sequence (P02461 154-1221 limits assumed): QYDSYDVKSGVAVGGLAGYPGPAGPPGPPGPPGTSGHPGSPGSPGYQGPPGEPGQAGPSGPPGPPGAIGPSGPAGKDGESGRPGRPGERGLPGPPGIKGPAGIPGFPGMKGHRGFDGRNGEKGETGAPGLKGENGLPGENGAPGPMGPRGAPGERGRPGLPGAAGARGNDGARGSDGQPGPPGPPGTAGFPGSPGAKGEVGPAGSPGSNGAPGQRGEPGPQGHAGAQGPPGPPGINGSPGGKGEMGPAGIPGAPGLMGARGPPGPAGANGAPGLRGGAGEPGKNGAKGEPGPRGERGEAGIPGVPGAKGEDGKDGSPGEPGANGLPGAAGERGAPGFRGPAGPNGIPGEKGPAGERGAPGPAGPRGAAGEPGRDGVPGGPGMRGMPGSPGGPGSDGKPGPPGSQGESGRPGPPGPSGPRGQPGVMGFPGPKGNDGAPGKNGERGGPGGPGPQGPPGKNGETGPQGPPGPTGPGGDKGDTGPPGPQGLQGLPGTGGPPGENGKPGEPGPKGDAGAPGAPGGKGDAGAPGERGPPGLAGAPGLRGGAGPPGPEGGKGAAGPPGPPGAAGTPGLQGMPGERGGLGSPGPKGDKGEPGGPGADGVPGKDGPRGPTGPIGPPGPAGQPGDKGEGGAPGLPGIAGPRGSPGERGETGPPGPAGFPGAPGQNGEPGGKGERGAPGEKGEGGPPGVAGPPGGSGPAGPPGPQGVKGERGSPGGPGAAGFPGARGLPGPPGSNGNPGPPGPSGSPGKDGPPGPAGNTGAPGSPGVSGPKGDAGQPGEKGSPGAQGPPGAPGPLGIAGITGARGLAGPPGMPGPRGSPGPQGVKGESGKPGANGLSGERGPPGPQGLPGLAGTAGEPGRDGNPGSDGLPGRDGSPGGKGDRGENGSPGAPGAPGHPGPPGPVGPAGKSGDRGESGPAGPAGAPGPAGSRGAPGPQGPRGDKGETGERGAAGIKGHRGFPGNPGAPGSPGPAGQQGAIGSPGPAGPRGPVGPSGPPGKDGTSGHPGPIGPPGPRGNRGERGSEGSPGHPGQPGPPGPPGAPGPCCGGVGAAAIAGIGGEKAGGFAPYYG
# T2: collagen III (Homo sapiens, UniProt P02461)
# T2 construct: purchased Millipore
# T2 sequence (P02461 154-1221 limits assumed): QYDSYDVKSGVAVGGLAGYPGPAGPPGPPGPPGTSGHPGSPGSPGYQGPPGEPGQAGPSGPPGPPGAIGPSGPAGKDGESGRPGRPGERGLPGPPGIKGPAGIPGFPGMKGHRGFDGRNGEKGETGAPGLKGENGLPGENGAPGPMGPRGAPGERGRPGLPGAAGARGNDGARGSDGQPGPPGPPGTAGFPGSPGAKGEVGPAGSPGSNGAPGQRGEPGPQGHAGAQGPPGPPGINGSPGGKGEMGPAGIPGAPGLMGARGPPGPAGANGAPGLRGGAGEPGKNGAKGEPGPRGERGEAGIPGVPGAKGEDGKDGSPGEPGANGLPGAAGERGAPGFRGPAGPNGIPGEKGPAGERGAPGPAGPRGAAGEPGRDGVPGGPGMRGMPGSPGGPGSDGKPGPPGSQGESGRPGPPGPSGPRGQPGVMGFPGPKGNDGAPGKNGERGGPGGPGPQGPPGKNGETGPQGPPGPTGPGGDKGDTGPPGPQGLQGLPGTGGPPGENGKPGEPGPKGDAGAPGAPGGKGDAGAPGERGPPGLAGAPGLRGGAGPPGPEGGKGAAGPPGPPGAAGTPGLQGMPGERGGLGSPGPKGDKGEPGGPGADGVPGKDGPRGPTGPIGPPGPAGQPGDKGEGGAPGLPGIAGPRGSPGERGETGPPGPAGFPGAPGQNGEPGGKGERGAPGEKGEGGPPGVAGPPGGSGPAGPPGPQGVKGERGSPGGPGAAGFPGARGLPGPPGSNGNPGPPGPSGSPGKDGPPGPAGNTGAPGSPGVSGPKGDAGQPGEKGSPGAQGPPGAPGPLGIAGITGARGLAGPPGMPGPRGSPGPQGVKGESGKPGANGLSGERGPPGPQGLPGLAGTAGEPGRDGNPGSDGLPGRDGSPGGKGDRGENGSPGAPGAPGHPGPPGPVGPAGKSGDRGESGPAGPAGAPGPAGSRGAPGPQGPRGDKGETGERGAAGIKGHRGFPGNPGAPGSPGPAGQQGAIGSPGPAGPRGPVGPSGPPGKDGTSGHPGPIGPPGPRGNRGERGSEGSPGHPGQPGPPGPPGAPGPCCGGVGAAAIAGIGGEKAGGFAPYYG
# B1: decorin: proteoglycan known to influence collagen fibrillogenesis (protein, UniProt P07585 31-359, looked up)
# Decorin: DEASGIGPEVPDDRDFEPSLGPVCPFRCQCHLRVVQCSDLGLDKVPKDLPPDTTLLDLQNNKITEIKDGDFKNLKNLHALILVNNKISKVSPGAFTPLVKLERLYLSKNQLKELPEKMPKTLQELRAHENEITKVRKVTFNGLNQMIVIELGTNPLKSSGIENGAFQGMKKLSYIRIADTNITSIPQGLPPSLTELHLDGNKISRVDAASLKGLNNLAKLGLSFNSISAVDNGSLANTPHLRELHLDNNKLTRVPGGLAEHKYIQVVYLHNNNISVVGSSDFCPPGHNTKKASYSGVSLFSNPVQYWEIQPSTFRCVYVRSAIQLGNYK
# Assays:
# collagen type III = molecular target: T1, collagen type III; assay: Viscoelastic characterization of collagen III containing gels; type: biochemical; conditions: 1.5 mg/mL collagen (90% collagen III); 1:1 and 5:1 molar ratios
# Method: Gels containing type III collagen were prepared as in EXAMPLE 16 with the following modifications: treated and untreated gel solutions were prepared using a collagen concentration of 1.5 mg/mL (90% collagen III (Millipore), 10% collagen I), 200 μL samples were pipetted onto 20 mm diameter wettable surfaces of hydrophobic printed slides. These solutions were allowed to gel at 37° C. for 24 hours. Gels were formed from collagen alone, collagen treated with dermatan sulfate (1:1 and 5:1 molar ratio), and collagen treated with the collagen III-binding peptides alone (GSIT and KELN, 5:1 molar ratio) served as controls.
# collagen III = molecular target: T2, collagen III; assay: Cryo-SEM measurements on collagen III, void space; type: biochemical; conditions: 1 mg/mL collagen (90% collagen III), 1:1 collagen:peptidoglycan
# Method: Gels for cryo-SEM were formed, as in EXAMPLE 16, directly on the SEM stage and incubated at 37° C. overnight with the following modifications. The collagen concentration was 1 mg/mL (90% collagen III, 10% collagen I). The collagen:DS ratio was 1:1 and the collagen:peptidoglycan ratio was 1:1. The images were recorded as in EXAMPLE 21. The ratio of void volume to fibril volume was measured using a variation of the method in EXAMPLE 21.
# [1] = test system: Human aortic smooth muscle cells; assay: Collagen remodeling: hydroxyproline content in medium of cell-seeded collagen gels; type: cell-based; conditions: vs collagen alone; cultures up to 30 days
# Method: Following a method by Grassl, et al. (Grassl, et al., Journal of Biomedical Materials Research 2002, 60, (4), 607-612), which is herein incorporated in its entirety, collagen gels with or without synthetic PG mimics were formed as described in EXAMPLE 16. Human aortic smooth muscle cells (Cascade Biologics, Portland, Oreg.) were seeded within collagen gels by adding 4×10^6 cells/mL to the neutralized collagen solution prior to incubation. The cell-collagen solutions were pipetted into an 8-well Lab-Tek chamber slide and incubated in a humidified 37° C. and 5% CO2 incubator. After gelation, the cell-collagen gels will be covered with 1 mL Medium 231 as prescribed by Cascade. Every 3-4 days, the medium was removed from the samples and the hydroxyproline content measured by a standard hydroxyproline assay (Reddy, 1996).
# To measure degraded collagen in the supernatant medium, the sample was lyophilized, the sample hydrolyzed in 2M NaOH at 120° C. for 20 min. After cooling, free hydroxyproline was oxidized by adding chloramine-T (Sigma) and reacting for 25 min at room temperature. Ehrlich's aldehyde reagent (Sigma) was added and allowed to react for 20 min at 65° C. and followed by reading the absorbance at 550 nm on an M-5 spectrophotometer (Molecular Devices). […] Cultures were incubated for up to 30 days and three samples of each treatment measured. […]
# collagen = molecular target: T3, collagen (Bos taurus, UniProt P02453+P02465); assay: Fibrillogenesis turbidity assay (absorbance at 313 nm); type: biochemical; conditions: 1:1 collagen:additive molar ratio, vs collagen alone
# T3 construct: purchased Inamed, Freemont, Calif; Nutragen
# Method: (§1) Gels were made with Nutragen collagen (Inamed, Freemont, Calif.) at a final concentration of 4 mg/mL collagen. Nutragen stock is 6.4 mg/mL in 10 mM HCl. Gel preparation was performed on ice, and fresh samples were made before each test. The collagen solution was adjusted to physiologic pH and salt concentration, by adding appropriate volumes of 10×PBS (phosphate buffered saline), 1×PBS, and 1M NaOH. For most experiments, samples of DS, decorin, DS-SILY, or DS-Dc13 were added at a 10:1 collagen:treatment molar ratio by a final 1×PBS addition (equal volumes across treatments) in which the test samples were dissolved at appropriate concentrations. In this way, samples are constantly kept at pH 7.4 and physiologic salt concentration. Collagen-alone samples received a 1×PBS addition with no sample dissolved. Fibrillogenesis will be induced by incubating neutralized collagen solutions at 37° C. overnight in a humidified chamber to avoid dehydration. Gel solutions with collagen:treatment molar ratios of other than 10:1 were prepared similarly.
# Collagen fibrillogenesis was monitored by measuring turbidity related absorbance at 313 nm providing information on rate of fibrillogenesis and fibril diameter. Gel solutions were prepared as described in EXAMPLE 16 (4 mg/mL collagen, 10:1 collagen:treatment, unless otherwise indicated) and 50 uL/well were added at 4° C. to a 384-well plate. The plate was kept at 4° C. for 4 hours before initiating fibril formation. A SpectraMax M5 at 37° C. was used to measure absorbance at 313 nm at 30 s intervals for 6 hours.
# A fibrillogenesis assay as described for DS-SILY, EXAMPLE 19, performed with the conjugate DS-Dc13.
# collagen I = molecular target: T4, collagen I (Bos taurus, UniProt P02453+P02465); assay: Cryo-SEM measurements on collagen I, fibril diameter; type: biochemical; conditions: 4 mg/mL collagen, 10:1 collagen:treatment, cryo-SEM 20,000×
# T4 construct: purchased Inamed, Freemont, Calif; Nutragen
# Method: as §1
# Gels for cryo-SEM were formed, as in EXAMPLE 16, directly on the SEM stage and incubated at 37° C. overnight. The stages were then secured in a cryo-holder and plunged into liquid nitrogen slush. Samples were then transferred to a Gatan Alto 2500 pre-chamber cooled to −170° C. under vacuum. A free-break surface was created with a cooled scalpel, and each sample evaporated under sublimation conditions for 20 min. The sample was coated by platinum sputter coating for 120 s. Samples were transferred to the cryo-stage at −130° C. and regions with similar orientation were imaged for comparison across treatments. Analysis of the images was performed to determine the fibril diameter distribution, presented in histograms adjacent the corresponding image in FIG. 14, and average fibril diameter, FIG. 17 an 18;. Fibril diameter was calculated using ImageJ software (NIH) measuring individual fibrils by hand (drawing a line across fibrils and measuring its length after properly setting the scale). At least 45 independent fibril measurement were recorded for average fibril diameter calculations.
# Human dermal fibroblasts = assay: TGF-β1 production by human dermal fibroblasts (ELISA); type: cell-based; conditions: 1.4 μM treatment, 48 hours
# Method: Human dermal fibroblasts (Cascade Biologics) were seeded onto 96-well tissue culture polystyrene plates at a seeding density of 1.83×10^3 cells/well. Cells adhered overnight and cell medium was aspirated. 100 μL/well of cell medium containing a final concentration of 1.4 μM treatment delivered from a concentrated solution of treatment in 1×PBS was added to the cells. After 48 hours, cell medium was removed and frozen at −80 C until further testing. TGF-β1 was measured by ELISA using a kit and protocol from R&D Systems.
# [2] = test system: Human coronary artery smooth muscle cells (HCA SMC); assay: Gel compaction by smooth muscle cells in collagen gels; type: cell-based; conditions: Days 3 and 5
# Method: Human coronary artery smooth muscle cells (HCA SMC) (Cascade Biologics) were cultured in growth medium (Medium 231 supplemented with smooth muscle growth factor). Cells from passage 3 were used for all experiments. Differentiation medium (Medium 231 supplemented with 1% FBS and 1× pen/strep) was used for all experiments unless otherwise noted.
# Collagen gels were prepared with each additive as described with the exception that the 1×PBS example addition was omitted to accommodate the addition of cells in media. After incubating on ice for 30 min, HCA SMCs in differentiation medium were added to the gel solutions to a final concentration of 1×10^6 cells/mL. Gels were formed in quadruplicate in 48-well non-tissue culture treated plates (Costar) for 6 hrs before adding 500 μL/well differentiation medium. Gels were freed from the well edges after 24 hrs. Medium was changed every 2-3 days and images for compaction were taken at the same time points using a Gel Doc System (Bio-Rad). The cross-sectional area of circular gels correlating to degree of compaction was determined using ImageJ software (NIH). Gels containing no cells were used as a negative control and cells in collagen gels absent additive were used as a positive control. […] By day 10 all gels had compacted to approximately 10% of the original gel area, and differences between additives were small.
# T4 sequence (P02453 162-1217 limits assumed): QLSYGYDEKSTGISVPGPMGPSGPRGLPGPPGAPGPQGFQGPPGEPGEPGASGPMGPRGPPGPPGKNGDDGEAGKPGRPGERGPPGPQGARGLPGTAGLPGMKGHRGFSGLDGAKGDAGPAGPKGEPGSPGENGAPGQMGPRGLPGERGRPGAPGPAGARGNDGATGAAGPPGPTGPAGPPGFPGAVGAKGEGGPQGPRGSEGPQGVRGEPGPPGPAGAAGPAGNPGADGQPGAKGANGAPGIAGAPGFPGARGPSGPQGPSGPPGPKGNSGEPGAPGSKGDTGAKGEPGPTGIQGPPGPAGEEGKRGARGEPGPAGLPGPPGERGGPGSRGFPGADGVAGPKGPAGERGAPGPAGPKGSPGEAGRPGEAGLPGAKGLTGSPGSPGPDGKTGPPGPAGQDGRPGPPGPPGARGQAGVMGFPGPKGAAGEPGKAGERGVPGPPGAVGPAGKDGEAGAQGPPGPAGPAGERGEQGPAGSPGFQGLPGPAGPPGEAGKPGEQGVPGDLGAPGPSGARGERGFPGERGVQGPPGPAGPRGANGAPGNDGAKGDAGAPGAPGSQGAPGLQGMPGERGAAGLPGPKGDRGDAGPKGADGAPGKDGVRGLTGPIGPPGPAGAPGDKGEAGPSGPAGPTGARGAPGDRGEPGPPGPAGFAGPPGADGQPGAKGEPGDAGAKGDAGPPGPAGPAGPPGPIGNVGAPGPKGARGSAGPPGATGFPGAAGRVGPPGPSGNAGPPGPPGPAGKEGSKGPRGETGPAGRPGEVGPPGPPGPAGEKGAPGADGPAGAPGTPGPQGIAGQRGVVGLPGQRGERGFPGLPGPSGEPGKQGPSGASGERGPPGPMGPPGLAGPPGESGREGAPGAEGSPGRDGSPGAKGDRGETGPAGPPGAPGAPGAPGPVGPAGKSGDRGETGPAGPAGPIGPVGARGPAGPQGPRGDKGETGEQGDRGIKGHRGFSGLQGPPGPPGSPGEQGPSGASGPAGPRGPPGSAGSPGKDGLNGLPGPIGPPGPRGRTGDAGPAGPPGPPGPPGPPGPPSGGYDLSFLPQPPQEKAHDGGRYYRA
# T4 sequence (P02465 80-1117 limits assumed): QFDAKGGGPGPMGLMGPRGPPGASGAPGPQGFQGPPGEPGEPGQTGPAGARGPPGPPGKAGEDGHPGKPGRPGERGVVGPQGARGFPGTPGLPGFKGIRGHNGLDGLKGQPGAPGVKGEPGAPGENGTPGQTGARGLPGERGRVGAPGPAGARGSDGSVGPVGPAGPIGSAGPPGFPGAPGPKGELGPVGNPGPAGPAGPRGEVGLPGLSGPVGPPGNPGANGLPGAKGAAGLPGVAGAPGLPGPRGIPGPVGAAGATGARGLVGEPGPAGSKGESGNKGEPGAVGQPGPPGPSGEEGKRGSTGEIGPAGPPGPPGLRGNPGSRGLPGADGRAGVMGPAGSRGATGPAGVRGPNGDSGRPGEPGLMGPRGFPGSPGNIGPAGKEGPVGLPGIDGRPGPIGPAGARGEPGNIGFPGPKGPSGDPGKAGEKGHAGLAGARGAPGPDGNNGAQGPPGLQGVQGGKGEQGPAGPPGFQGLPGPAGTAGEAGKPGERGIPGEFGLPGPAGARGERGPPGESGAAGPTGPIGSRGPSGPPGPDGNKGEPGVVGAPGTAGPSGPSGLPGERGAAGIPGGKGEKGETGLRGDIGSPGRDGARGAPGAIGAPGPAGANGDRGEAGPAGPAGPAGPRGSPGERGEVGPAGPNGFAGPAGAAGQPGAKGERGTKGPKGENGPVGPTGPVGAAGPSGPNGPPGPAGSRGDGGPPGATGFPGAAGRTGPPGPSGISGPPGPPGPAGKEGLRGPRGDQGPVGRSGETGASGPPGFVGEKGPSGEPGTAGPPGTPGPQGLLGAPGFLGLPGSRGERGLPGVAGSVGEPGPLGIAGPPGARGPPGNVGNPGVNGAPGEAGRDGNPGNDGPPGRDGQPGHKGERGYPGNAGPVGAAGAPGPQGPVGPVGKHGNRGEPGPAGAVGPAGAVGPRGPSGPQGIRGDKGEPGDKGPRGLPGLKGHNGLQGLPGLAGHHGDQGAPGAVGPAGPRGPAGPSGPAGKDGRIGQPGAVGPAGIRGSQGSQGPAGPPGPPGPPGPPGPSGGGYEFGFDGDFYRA
# T3 sequence (P02453 162-1217 limits assumed): as the sequence (P02453 162-1217 limits assumed) above
# T3 sequence (P02465 80-1117 limits assumed): as the sequence (P02465 80-1117 limits assumed) above
molecule,measurement,setting,value
"DS-GSIT: dermatan sulfate conjugated to GSIT peptide GSITTIDVPWNVGC (also: dermatan sulfate conjugate, site not given here)",viscoelastic properties of gels formed with collagen type III,collagen type III,can influence the viscoelastic properties of gels formed with collagen type III
same,void space,collagen III,decrease void space (increase fibril diameter and branching)
SYIRIADTNITGC [Dc13],collagen degradation measured by hydroxyproline content in cell medium,[1],greater collagen degradation compared to collagen alone
same,effect on fibrillogenesis,collagen,little effect on fibrillogenesis compared to collagen alone
"DS-KELN: dermatan sulfate conjugated to KELN peptide KELNLVYTGC (also: dermatan sulfate conjugate, site not given here)",viscoelastic properties of gels formed with collagen type III,collagen type III,can influence the viscoelastic properties of gels formed with collagen type III
same,void space,collagen III,decrease void space (increase fibril diameter and branching)
B1,average fibril diameter,collagen I,significant decrease in average fibril diameter
same,TGF-β1 in cell medium,Human dermal fibroblasts,significantly decreased TGF-β1
same,gel compaction at early time points,[2],significantly compacted more than gels made of collagen alone or collagen with dermatan sulfate

# Reference: patent publication US20170283458A1, “COLLAGEN-BINDING SYNTHETIC PEPTIDOGLYCANS FOR WOUND HEALING” (Symic Biomedical, Inc., priority 2009, published 2017)
